Assay results: publication doi:10.1101/2024.11.27.625426 (bioRxiv, 2024)

B1: NCS.1.1 mAb (IgG) (antibody, V domains shown)
VH: QVQLQESGPRLVKPSETLSLTCSVSGESISSGGYYWTWIRQHPGKGLEWIGNIFDTGSTDYSPSLKTRLTISIDTSKNQFYLRLNSATAADTAVYYCARVGFSLETDRPYYLGLDVWGQGTTVTVSS
VL: DIVMTQSPLSLPVTPGEPASISCRSSQSLLHSNGYTYLDWYLQKPGQSPQLLISFTSNRASGVPDRFSGSGSGTYFTLKISRVEAEDVGVYYCMQAVQTPWTFGQGTKVEIK
notes: copies: 2 + 2
B2: NCS.1.3 mAb (IgG) (antibody, V domains shown)
VH: QVQLQESGPRLVKPSETLSLTCSVSGESISSGGYYWTWIRQHPGKGLEWIGNIFDTGSTDYSPSLKTRLTISIDTSKNQFYLRLTSATAADTAVYYCARVGFSLETDRPYYLGLDVWGQGTTVTVSS
VL: DIVMTQSPLTLPVTPGEPASISCRSSQSLLHSNGYTYLDWYLQKPGQSPQLLIYFASNRASGVPDRFSGSGSGTYFTLKISRVEAEDVGVYYCMQAVQSPWTFGQGTKVEIK
notes: copies: 2 + 2

Assays:
[1] = target: T1, NA of influenza B-Victoria lineage virus B/Colorado/06/2017 (B/Vic CO17) (Influenza B virus B/Colorado/06/2017 …, UniProt A0A1X9RX69); test: ELISA; details: both partners purified
T1 construct: not shown: His6, N-terminal, kept

[2] = target: sNAp of A/New Caledonia/20/1999 (NC99, H1N1) NA (Influenza A virus A/New …, UniProt Q7TG96, stabilised); test: ELISA; details: both partners purified

Row | Binder | binding result [1] | binding result [2]
1 | B1 | binds | binds
2 | B2 | binds | binds
